Residue numbers refer to the chain shown, from its start. Numbers in names are those of the source. No end group written: not given here. TMR = tetramethyl rhodamine dye
B1: TMR-E2F1^TD, peptide of the E2F1 transactivation domain (peptide)
peptide: {TMR}-GEGIRDLFDCDFGDLTPLD
notes: also called E2F^TD; source: synthetic peptide, bought: GenScript
B2: TMR-E7^LxCxE, LxCxE peptide of the E7 oncoprotein from HPV (peptide)
peptide: DLYCYEQLN
modifications: also: TMR label, position not given here
notes: source: synthetic peptide, bought: GenScript

Assays:
Experiment in all cases: fluorescence polarisation; 37 °C, after the 25 °C reading ramped over 7 min to 37 °C and 2 min incubation; unlabeled Rb^P against 1.5 nM TMR-E2F1^TD or 7.5 nM TMR-E7^LxCxE; 25 mM Tris pH 8.0, 200 mM NaCl, 1 mM DTT, 0.1% Tween-20; apparent Kd
Details in all cases: both partners purified
Rb^P Q444R = target: T1, Rb^P Q444R (human, UniProt P06400 380-788, Q444R)
T1 construct: also called variant 4
T1 sequence (looked up): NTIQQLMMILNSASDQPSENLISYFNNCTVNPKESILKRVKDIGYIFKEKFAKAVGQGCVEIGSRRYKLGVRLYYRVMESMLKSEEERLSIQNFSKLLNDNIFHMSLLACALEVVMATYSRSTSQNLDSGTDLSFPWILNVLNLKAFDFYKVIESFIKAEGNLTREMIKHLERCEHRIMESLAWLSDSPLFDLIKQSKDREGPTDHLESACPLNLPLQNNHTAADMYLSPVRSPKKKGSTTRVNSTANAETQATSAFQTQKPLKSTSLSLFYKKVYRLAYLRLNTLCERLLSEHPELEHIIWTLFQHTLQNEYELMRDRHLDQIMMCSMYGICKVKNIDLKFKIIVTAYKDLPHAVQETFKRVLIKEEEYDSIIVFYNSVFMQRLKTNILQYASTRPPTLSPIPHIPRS

Rb^P S751Y = target: T2, Rb^P S751Y (human, UniProt P06400 380-788, S751Y)
T2 construct: also called variant 72
T2 sequence (looked up): T1 sequence (looked up) with R65Q, S372Y

Rb^P S612P = target: T3, Rb^P S612P (human, UniProt P06400 380-788, S612P)
T3 construct: also called variant 39
T3 sequence (looked up): T1 sequence (looked up) with R65Q, S233P

Rb^P R668H = target: T4, Rb^P R668H (human, UniProt P06400 380-788, R668H)
T4 construct: also called variant 52
T4 sequence (looked up): T1 sequence (looked up) with R65Q, R289H

Rb^P E675Q = target: T5, Rb^P E675Q (human, UniProt P06400 380-788, E675Q)
T5 construct: also called variant 56
T5 sequence (looked up): T1 sequence (looked up) with R65Q, E296Q

Binder | Kd (Rb^P Q444R) | Kd (Rb^P S751Y) | Kd (Rb^P S612P) | Kd (Rb^P R668H) | Kd (Rb^P E675Q)
B1 | 25 nM | 127 nM | 49 nM | 22 nM | 71 nM
B2 | 17 nM | 420 nM | 17 nM | 28 nM | 46 nM

Source: paper PMC11931385, “Structural and functional analysis of cancer-associated missense variants in the retinoblastoma protein pocket domain” (The Journal of Biological Chemistry, 2025)
